Reference: article PMC7904477 (Journal of the American Chemical Society, 2020)
Positions count from the first letter of the chain named. Numbers in names are those of the source.

T1: wt α2 (subunit α2 of E. coli class Ia ribonucleotide reductase) (E. coli, UniProt P00452 1-761)
T1 sequence (looked up): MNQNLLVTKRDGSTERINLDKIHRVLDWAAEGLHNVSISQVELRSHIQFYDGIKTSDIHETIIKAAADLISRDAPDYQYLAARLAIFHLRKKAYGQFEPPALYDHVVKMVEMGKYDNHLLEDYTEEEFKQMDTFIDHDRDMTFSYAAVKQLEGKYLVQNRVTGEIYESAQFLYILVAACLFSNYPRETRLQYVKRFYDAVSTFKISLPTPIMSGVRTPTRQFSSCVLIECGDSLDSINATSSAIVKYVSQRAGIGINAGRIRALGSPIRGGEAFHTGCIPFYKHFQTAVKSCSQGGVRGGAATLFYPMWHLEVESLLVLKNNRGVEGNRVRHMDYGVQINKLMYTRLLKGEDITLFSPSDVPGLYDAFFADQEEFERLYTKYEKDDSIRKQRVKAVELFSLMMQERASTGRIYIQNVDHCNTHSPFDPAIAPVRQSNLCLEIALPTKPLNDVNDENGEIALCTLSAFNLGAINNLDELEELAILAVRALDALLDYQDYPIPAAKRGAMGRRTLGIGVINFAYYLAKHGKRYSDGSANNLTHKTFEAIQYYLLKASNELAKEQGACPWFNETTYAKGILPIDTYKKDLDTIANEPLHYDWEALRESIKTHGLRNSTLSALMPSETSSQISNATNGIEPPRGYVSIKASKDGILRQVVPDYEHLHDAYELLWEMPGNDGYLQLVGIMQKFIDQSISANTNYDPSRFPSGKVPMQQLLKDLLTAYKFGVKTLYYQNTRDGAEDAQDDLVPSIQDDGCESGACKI

B1: wt β2 (subunit β2 of E. coli class Ia ribonucleotide reductase) (enzyme, UniProt P69924 1-376, looked up)
chain: MAYTTFSQTKNDQLKEPMFFGQPVNVARYDQQKYDIFEKLIEKQLSFFWRPEEVDVSRDRIDYQALPEHEKHIFISNLKYQTLLDSIQGRSPNVALLPLISIPELETWVETWAFSETIHSRSYTHIIRNIVNDPSVVFDDIVTNEQIQKRAEGISSYYDELIEMTSYWHLLGEGTHTVNGKTVTVSLRELKKKLYLCLMSVNALEAIRFYVSFACSFAFAERELMEGNAKIIRLIARDEALHLTGTQHMLNLLRSGADDPEMAEIAEECKQECYDLFVQAAQQEKDWADYLFRDGSMIGLNKDILCQYVEYITNIRMQAVGLDLPFQTRSNPIPWINTWLVSDNVQVAPQEVEVSSYLVGQIDSEVDTDDLSNFQL
modifications: diferric-tyrosyl radical cofactor (Y122•), reconstitution yield of 1.1 Y•/β2
B2: E52Q-photoβ2 (E52Q/C268S/C305S/S355C-β2 of E. coli class Ia ribonucleotide reductase, labelled with the [Re] photooxidant at C355) (enzyme, UniProt P69924 1-376, looked up)
chain: B1 chain with E53Q, C269S, C306S, S356C
modifications: [Re] photooxidant (tricarbonyl(1,10-phenanthroline)-4-thiomethylpyridine rhenium) covalently ligated to C355 (S355C); endogenous Y122• reduced

Target: T1, wt α2 (subunit α2 of E. coli class Ia …)
Assay: competitive inhibition assay

| Binder | binding result | Kd [nM] |
| --- | --- | --- |
| B1 | binds | – |
| B2 | – | 1060 |
